Test results as given in patent US20110166062A1 (INDIANA UNIVERSITY RESEARCH AND TECHNOLOGY, published 2011).
Where no end group is shown, it is not given here. [ ]: non-standard residue; d: D form. The star is where a group is joined. PEG 40 kDa = PEG (40 kDa) covalently attached to Cys; Stearoyl = CCCCCCCCCCCCCCCCCC(=O)*; Palmitoyl = CCCCCCCCCCCCCCCC(=O)*; Myristoyl = CCCCCCCCCCCCCC(=O)*; Octanoyl = CCCCCCCC(=O)*; Aib = CC(C)(N)C(=O)O

T1: GIP receptor (UniProt P48546 22-466)
T1 sequence (looked up): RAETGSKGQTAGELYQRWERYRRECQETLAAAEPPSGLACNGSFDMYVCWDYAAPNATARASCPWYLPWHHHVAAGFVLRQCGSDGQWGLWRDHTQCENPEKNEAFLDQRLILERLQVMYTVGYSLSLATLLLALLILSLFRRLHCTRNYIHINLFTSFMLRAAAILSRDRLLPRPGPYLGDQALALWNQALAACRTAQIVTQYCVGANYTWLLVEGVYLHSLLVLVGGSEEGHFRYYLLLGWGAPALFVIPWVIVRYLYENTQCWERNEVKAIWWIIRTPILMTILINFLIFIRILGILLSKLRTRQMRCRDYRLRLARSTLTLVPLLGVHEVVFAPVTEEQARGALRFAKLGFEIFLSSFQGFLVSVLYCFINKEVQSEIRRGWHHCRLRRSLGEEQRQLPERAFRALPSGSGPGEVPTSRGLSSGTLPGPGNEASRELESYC

B1: mt-257 (peptide)
peptide: Y[Aib]QGTFTSDYSIYLDKQAA[Aib]EFVCWLLAG-NH2
modifications: N-terminus assumed
SMILES: CC[C@H](C)[C@H](NC(=O)[C@H](CO)NC(=O)[C@H](Cc1ccc(O)cc1)NC(=O)[C@H](CC(=O)O)NC(=O)[C@H](CO)NC(=O)[C@@H](NC(=O)[C@H](Cc1ccccc1)NC(=O)[C@@H](NC(=O)CNC(=O)[C@H](CCC(N)=O)NC(=O)C(C)(C)NC(=O)[C@@H](N)Cc1ccc(O)cc1)[C@@H](C)O)[C@@H](C)O)C(=O)N[C@@H](Cc1ccc(O)cc1)C(=O)N[C@@H](CC(C)C)C(=O)N[C@@H](CC(=O)O)C(=O)N[C@@H](CCCCN)C(=O)N[C@@H](CCC(N)=O)C(=O)N[C@@H](C)C(=O)N[C@@H](C)C(=O)NC(C)(C)C(=O)N[C@@H](CCC(=O)O)C(=O)N[C@@H](Cc1ccccc1)C(=O)N[C@H](C(=O)N[C@@H](CS)C(=O)N[C@@H](Cc1c[nH]c2ccccc12)C(=O)N[C@@H](CC(C)C)C(=O)N[C@@H](CC(C)C)C(=O)N[C@@H](C)C(=O)NCC(N)=O)C(C)C
B2: mt-323 (peptide)
peptide: Y[Aib]QGTFTSDYSIYLDKQAA[Aib]EFVNWLLAGGPSSGAPPPSK(Octanoyl)-NH2
modifications: N-terminus assumed
SMILES: CCCCCCCC(=O)NCCCC[C@H](NC(=O)[C@H](CO)NC(=O)[C@@H]1CCCN1C(=O)[C@@H]1CCCN1C(=O)[C@@H]1CCCN1C(=O)[C@H](C)NC(=O)CNC(=O)[C@H](CO)NC(=O)[C@H](CO)NC(=O)[C@@H]1CCCN1C(=O)CNC(=O)CNC(=O)[C@H](C)NC(=O)[C@H](CC(C)C)NC(=O)[C@H](CC(C)C)NC(=O)[C@H](Cc1c[nH]c2ccccc12)NC(=O)[C@H](CC(N)=O)NC(=O)[C@@H](NC(=O)[C@H](Cc1ccccc1)NC(=O)[C@H](CCC(=O)O)NC(=O)C(C)(C)NC(=O)[C@H](C)NC(=O)[C@H](C)NC(=O)[C@H](CCC(N)=O)NC(=O)[C@H](CCCCN)NC(=O)[C@H](CC(=O)O)NC(=O)[C@H](CC(C)C)NC(=O)[C@H](Cc1ccc(O)cc1)NC(=O)[C@@H](NC(=O)[C@H](CO)NC(=O)[C@H](Cc1ccc(O)cc1)NC(=O)[C@H](CC(=O)O)NC(=O)[C@H](CO)NC(=O)[C@@H](NC(=O)[C@H](Cc1ccccc1)NC(=O)[C@@H](NC(=O)CNC(=O)[C@H](CCC(N)=O)NC(=O)C(C)(C)NC(=O)[C@@H](N)Cc1ccc(O)cc1)[C@@H](C)O)[C@@H](C)O)[C@@H](C)CC)C(C)C)C(N)=O
B3: mt-285 (peptide)
peptide: Y[Aib]EGTFTSDKSIYLDKQAA[Aib]EFVNWLLAG-NH2
modifications: N-terminus assumed
SMILES: CC[C@H](C)[C@H](NC(=O)[C@H](CO)NC(=O)[C@H](CCCCN)NC(=O)[C@H](CC(=O)O)NC(=O)[C@H](CO)NC(=O)[C@@H](NC(=O)[C@H](Cc1ccccc1)NC(=O)[C@@H](NC(=O)CNC(=O)[C@H](CCC(=O)O)NC(=O)C(C)(C)NC(=O)[C@@H](N)Cc1ccc(O)cc1)[C@@H](C)O)[C@@H](C)O)C(=O)N[C@@H](Cc1ccc(O)cc1)C(=O)N[C@@H](CC(C)C)C(=O)N[C@@H](CC(=O)O)C(=O)N[C@@H](CCCCN)C(=O)N[C@@H](CCC(N)=O)C(=O)N[C@@H](C)C(=O)N[C@@H](C)C(=O)NC(C)(C)C(=O)N[C@@H](CCC(=O)O)C(=O)N[C@@H](Cc1ccccc1)C(=O)N[C@H](C(=O)N[C@@H](CC(N)=O)C(=O)N[C@@H](Cc1c[nH]c2ccccc12)C(=O)N[C@@H](CC(C)C)C(=O)N[C@@H](CC(C)C)C(=O)N[C@@H](C)C(=O)NCC(N)=O)C(C)C
B4: mt-277 (peptide)
peptide: Y[Aib]QGTFTSDYSIYLDKQAA[Aib]EFVNWLLAGGPSSGAPPPSK(Myristoyl)-NH2
modifications: N-terminus assumed
SMILES: CCCCCCCCCCCCCC(=O)NCCCC[C@H](NC(=O)[C@H](CO)NC(=O)[C@@H]1CCCN1C(=O)[C@@H]1CCCN1C(=O)[C@@H]1CCCN1C(=O)[C@H](C)NC(=O)CNC(=O)[C@H](CO)NC(=O)[C@H](CO)NC(=O)[C@@H]1CCCN1C(=O)CNC(=O)CNC(=O)[C@H](C)NC(=O)[C@H](CC(C)C)NC(=O)[C@H](CC(C)C)NC(=O)[C@H](Cc1c[nH]c2ccccc12)NC(=O)[C@H](CC(N)=O)NC(=O)[C@@H](NC(=O)[C@H](Cc1ccccc1)NC(=O)[C@H](CCC(=O)O)NC(=O)C(C)(C)NC(=O)[C@H](C)NC(=O)[C@H](C)NC(=O)[C@H](CCC(N)=O)NC(=O)[C@H](CCCCN)NC(=O)[C@H](CC(=O)O)NC(=O)[C@H](CC(C)C)NC(=O)[C@H](Cc1ccc(O)cc1)NC(=O)[C@@H](NC(=O)[C@H](CO)NC(=O)[C@H](Cc1ccc(O)cc1)NC(=O)[C@H](CC(=O)O)NC(=O)[C@H](CO)NC(=O)[C@@H](NC(=O)[C@H](Cc1ccccc1)NC(=O)[C@@H](NC(=O)CNC(=O)[C@H](CCC(N)=O)NC(=O)C(C)(C)NC(=O)[C@@H](N)Cc1ccc(O)cc1)[C@@H](C)O)[C@@H](C)O)[C@@H](C)CC)C(C)C)C(N)=O
B5: mt-284 (peptide)
peptide: Y[Aib]EGTFTSDK(Stearoyl)SIYLDKQAA[Aib]EFVNWLLAG-NH2
modifications: N-terminus assumed
SMILES: CCCCCCCCCCCCCCCCCC(=O)NCCCC[C@H](NC(=O)[C@H](CC(=O)O)NC(=O)[C@H](CO)NC(=O)[C@@H](NC(=O)[C@H](Cc1ccccc1)NC(=O)[C@@H](NC(=O)CNC(=O)[C@H](CCC(=O)O)NC(=O)C(C)(C)NC(=O)[C@@H](N)Cc1ccc(O)cc1)[C@@H](C)O)[C@@H](C)O)C(=O)N[C@@H](CO)C(=O)N[C@H](C(=O)N[C@@H](Cc1ccc(O)cc1)C(=O)N[C@@H](CC(C)C)C(=O)N[C@@H](CC(=O)O)C(=O)N[C@@H](CCCCN)C(=O)N[C@@H](CCC(N)=O)C(=O)N[C@@H](C)C(=O)N[C@@H](C)C(=O)NC(C)(C)C(=O)N[C@@H](CCC(=O)O)C(=O)N[C@@H](Cc1ccccc1)C(=O)N[C@H](C(=O)N[C@@H](CC(N)=O)C(=O)N[C@@H](Cc1c[nH]c2ccccc12)C(=O)N[C@@H](CC(C)C)C(=O)N[C@@H](CC(C)C)C(=O)N[C@@H](C)C(=O)NCC(N)=O)C(C)C)[C@@H](C)CC
B6: mt-278 (peptide)
peptide: Y[Aib]QGTFTSDYSIYLDKQAA[Aib]EFVNWLLAGGPSSGAPPPSK(Palmitoyl)-NH2
modifications: N-terminus assumed
SMILES: CCCCCCCCCCCCCCCC(=O)NCCCC[C@H](NC(=O)[C@H](CO)NC(=O)[C@@H]1CCCN1C(=O)[C@@H]1CCCN1C(=O)[C@@H]1CCCN1C(=O)[C@H](C)NC(=O)CNC(=O)[C@H](CO)NC(=O)[C@H](CO)NC(=O)[C@@H]1CCCN1C(=O)CNC(=O)CNC(=O)[C@H](C)NC(=O)[C@H](CC(C)C)NC(=O)[C@H](CC(C)C)NC(=O)[C@H](Cc1c[nH]c2ccccc12)NC(=O)[C@H](CC(N)=O)NC(=O)[C@@H](NC(=O)[C@H](Cc1ccccc1)NC(=O)[C@H](CCC(=O)O)NC(=O)C(C)(C)NC(=O)[C@H](C)NC(=O)[C@H](C)NC(=O)[C@H](CCC(N)=O)NC(=O)[C@H](CCCCN)NC(=O)[C@H](CC(=O)O)NC(=O)[C@H](CC(C)C)NC(=O)[C@H](Cc1ccc(O)cc1)NC(=O)[C@@H](NC(=O)[C@H](CO)NC(=O)[C@H](Cc1ccc(O)cc1)NC(=O)[C@H](CC(=O)O)NC(=O)[C@H](CO)NC(=O)[C@@H](NC(=O)[C@H](Cc1ccccc1)NC(=O)[C@@H](NC(=O)CNC(=O)[C@H](CCC(N)=O)NC(=O)C(C)(C)NC(=O)[C@@H](N)Cc1ccc(O)cc1)[C@@H](C)O)[C@@H](C)O)[C@@H](C)CC)C(C)C)C(N)=O

Tests used:
Experiment in all cases: cell-based or functional assay
[1] = biological target: glucagon receptor (UniProt P47871 26-477, limits assumed)
Chain of glucagon receptor (P47871 26-477 limits assumed): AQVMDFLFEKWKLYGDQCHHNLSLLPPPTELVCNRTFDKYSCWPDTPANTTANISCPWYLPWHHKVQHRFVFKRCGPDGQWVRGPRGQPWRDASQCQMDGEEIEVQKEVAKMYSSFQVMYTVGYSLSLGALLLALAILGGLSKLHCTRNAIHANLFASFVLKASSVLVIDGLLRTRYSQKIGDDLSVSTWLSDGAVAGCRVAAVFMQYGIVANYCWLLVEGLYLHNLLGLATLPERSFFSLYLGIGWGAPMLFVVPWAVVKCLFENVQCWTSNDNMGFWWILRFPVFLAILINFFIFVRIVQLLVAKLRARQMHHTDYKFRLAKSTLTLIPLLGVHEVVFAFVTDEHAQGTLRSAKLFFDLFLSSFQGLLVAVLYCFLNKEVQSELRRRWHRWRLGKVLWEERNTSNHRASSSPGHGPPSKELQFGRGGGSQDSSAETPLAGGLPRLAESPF

[2] = biological target: T1, GIP receptor
[3] = biological target: GLP-1 receptor (UniProt P43220 24-463, limits assumed)

Binder | EC50 [1] [nM] | EC50 [2] [nM] | EC50 [3] [nM]
B1 | 0.211 |  | 
B2 |  | 0.0084 | 
Y[Aib]EGTFTSDYSIYLDKQAA[Aib]EFVNWLLAGGPSSGAPPPSK-NH2 [mt-263] | 3.18 | 0.0031 | 
Y[Aib]EGTFTSDK(Myristoyl)SIYLDKQAA[Aib]EFVCWLLAGGPSSGAPPPS-NH2 (also: C-terminal amidation listed at position 40 of 39-residue chain) [mt-337] | 106 | 0.008 | 
B3 |  | 0.028 | 
Y[Aib]EGTFTSDYSIYLDKQAA[Aib]EFVNWLLAGGPSSGAPPPSC-NH2 [mt-256] | 58.9 |  | 
Y[Aib]EGTFTSDKSIYLDKQAA[Aib]EFVCWLLAGGPSSGAPPPS-NH2 (also: C-terminal amidation listed at position 40 of 39-residue chain) [mt-338] | 295 | 0.0234 | 
B4 |  | 0.0052 | 0.0086
B5 |  | 0.0186 | 
Y[Aib]EGTFTSDYSIYLDKQAA[Aib]EFVNWLLAGGPSSGAPPPSC(PEG 40 kDa)-NH2 [mt-295] | 87.3 |  | 
Y[Aib]QGTFTSDYSIYLDKQAA[Aib]EFVC(PEG 40 kDa)WLLAG-NH2 [mt-281] | 0.282 |  | 
B6 |  | 0.0028 | 0.0042
